From patent US7794719 (dated 2010) come the findings set out here.

Assay [1] has as its target Aβ1-42 fibers (human). Nature of the assay: SPR. On the technique in general: Surface plasmon resonance follows binding to a sensor surface in real time, without labels.
For assay [2], the target named is Aβ1-42 fibers (human). Nature of the assay: SPR. The source holds these as a separate data set.
Assay [3] deals with Aβ1-40 fibers (human). Nature of the assay: SPR.
Assay [4] has as its target Aβ1-40 fibers (human). Nature of the assay: SPR. This is another data set of the same source.
Assay [5] addresses Aβ1-40 fibers (human). The experiment in a line: SPR, monovalent.
The target of assay [6] is Aβ1-40 fibers (human). Nature of the assay: SPR, bivalent.
Assay [7] deals with Aβ1-42 fibers (human). The experiment in a line: SPR, bivalent.
Assay [8] concerns the target Aβ1-42 fibers (human). Nature of the assay: SPR, monovalent.

Substitutions are numbered along the chain they refer to.

B1: MS-R 7.4.H2 x 7.2.L1 IgG1 (antibody, V domains shown)
VH: QLVESGGGLVQPGGSLRLSCAASGFTFSSYAMSWVRQAPGKGLEWVSAINYNGARIYYADSVKGRFTISRDNSKNTLYLQMNSLRAEDTAVYYCARGKGNTHKPYGYVRYFDVWGQGTLVTVSS
VL: DIVLTQSPATLSLSPGERATLSCRASQYVDRTYLAWYQQKPGQAPRLLIYGASSRATGVPARFSGSGSGTDFTLTISSLEPEDFATYYCQQIYSFPHTFGQGTKVEIKR
Take B1: the Kd is 0.12 nM in assay [1], 0.56 nM in assay [2], 0.63 nM in assay [3] and 0.12 nM in assay [4].

B2: MS-R 3.6.H8 x 3.6.L2 IgG1 (antibody, V domains shown)
VH: QLVESGGGLVQPGGSLRLSCAASGFTFSSYAMSWVRQAPGKGLEWVSAISEYSKFKYYADSVKGRFTISRDNSKNTLYLQMNSLRAEDTAVYYCARLTHYARYYRYFDVWGQGTLVTVSS
VL: B1 VL with Y28F, V29L, D30S, T32Y, T86V, I92T, S94N, F95Y, H97P
Turning to B2, the Kd was determined as 0.95 nM in assay [5], 0.22 nM in assay [6], 0.22 nM in assay [7] and 0.82 nM in assay [8].

B3: MS-R 7.11.H1 x 7.11.L1 IgG1 (antibody, V domains shown)
VH: B1 VH with A48G, Y51A, N52A, A54F, I56T
VL: B1 VL with Y28R, V29I, D30L, T32I, I92V, F95P
Turning to B3, the Kd in assay [1] turned out to be 0.13 nM; in assay [2], 0.7 nM; in assay [3], 0.7 nM; in assay [4] it was 0.11 nM.
